Results published in the Human Domainome abundance scans (Beltran et al. 2025).
± gives the uncertainty stated by the source.

B1: Chromodomain-helicase-DNA-binding protein 3, residues 374 to 426; numbered along this chain, Q12873 (parent)
chain: YETDHQDYCEVCQQGGEIILCDTCPRAYHLVCLDPELDRAPEGKWSCPHCEKE

Variants of: B1
Assay: abundance fitness (aPCA) (normalised: wild type 0, dead -1); higher = more abundant; growth selection in yeast, the domain comes from the species named
Settings: Homo sapiens

Row | Variant | abundance fitness
1 | D7G | -0.055 ± 0.14
2 | D7H | -0.012 ± 0.24
3 | D7K | -0.044 ± 0.15
4 | D7L | -0.727 ± 0.22
5 | D7M | -0.105 ± 0.29
6 | D7N | 0.044 ± 0.1
7 | D7P | 0.134 ± 0.26
8 | D7Q | -0.146 ± 0.26
9 | D7R | -0.289 ± 0.13
10 | D7S | -0.154 ± 0.11
11 | D7T | -0.036 ± 0.19
12 | D7V | -0.083 ± 0.15
13 | D7W | -0.767 ± 0.33
14 | D7Y | -0.522 ± 0.23
15 | Y8A | 0.207 ± 0.11
16 | Y8C | -0.211 ± 0.18
17 | Y8E | 0.098 ± 0.12
18 | Y8F | 0.083 ± 0.23
19 | Y8G | 0.165 ± 0.094
20 | Y8H | 0.461 ± 0.13
21 | Y8I | 0.21 ± 0.21
22 | Y8K | 0.141 ± 0.12
23 | Y8L | 0.215 ± 0.095
24 | Y8N | 0.061 ± 0.16

Row | Variant | abundance fitness
25 | Y8P | 0.302 ± 0.11
26 | Y8Q | 0.499 ± 0.12
27 | Y8R | 0.25 ± 0.079
28 | Y8S | -0.026 ± 0.092
29 | Y8T | -0.118 ± 0.1
30 | Y8V | 0.053 ± 0.1
31 | Y8W | -0.086 ± 0.12
32 | C9A | -0.96 ± 0.18
33 | C9D | -0.743 ± 0.19
34 | C9E | -0.548 ± 0.21
35 | C9F | -0.975 ± 0.17
36 | C9G | -0.669 ± 0.14
37 | C9H | -0.786 ± 0.17
38 | C9K | -0.425 ± 0.19
39 | C9L | -0.681 ± 0.1
40 | C9N | -0.353 ± 0.15
41 | C9P | -0.756 ± 0.14
42 | C9Q | -0.551 ± 0.15
43 | C9R | -0.62 ± 0.1
44 | C9V | -0.633 ± 0.14
45 | C9W | -0.716 ± 0.13
46 | C9Y | -0.74 ± 0.11
47 | E10A | -0.083 ± 0.11
48 | E10C | 0.046 ± 0.12

Row | Variant | abundance fitness
49 | E10D | 0.169 ± 0.13
50 | E10F | -0.08 ± 0.14
51 | E10G | -0.139 ± 0.089
52 | E10H | 0.114 ± 0.16
53 | E10K | 0.169 ± 0.13
54 | E10L | 0.259 ± 0.097
55 | E10M | -0.301 ± 0.13
56 | E10N | 0.268 ± 0.14
57 | E10P | -0.006 ± 0.14
58 | E10Q | 0.116 ± 0.18
59 | E10R | 0.027 ± 0.086
60 | E10S | 0.064 ± 0.097
61 | E10T | 0.132 ± 0.12
62 | E10V | 0.137 ± 0.1
63 | E10Y | 0.158 ± 0.12
64 | V11A | -0.143 ± 0.079
65 | V11C | 0.184 ± 0.089
66 | V11D | 0.178 ± 0.089
67 | V11E | 0.277 ± 0.08
68 | V11F | 0.138 ± 0.095
69 | V11H | 0.362 ± 0.11
70 | V11K | 0.258 ± 0.087
71 | V11L | 0.145 ± 0.073
72 | V11M | 0.279 ± 0.083

Row | Variant | abundance fitness
73 | V11N | 0.182 ± 0.094
74 | V11P | 0.029 ± 0.087
75 | V11Q | -0.217 ± 0.098
76 | V11R | 0.12 ± 0.072
77 | V11S | 0.284 ± 0.068
78 | V11T | 0.269 ± 0.078
79 | V11W | -0.266 ± 0.089
80 | V11Y | 0.085 ± 0.1
81 | C12A | -0.712 ± 0.15
82 | C12D | -0.7 ± 0.34
83 | C12E | -0.83 ± 0.16
84 | C12F | -0.903 ± 0.23
85 | C12G | -0.845 ± 0.11
86 | C12H | -0.999 ± 0.17
87 | C12I | -0.947 ± 0.2
88 | C12K | -0.757 ± 0.15
89 | C12L | -0.866 ± 0.099
90 | C12N | -0.67 ± 0.17
91 | C12P | -0.76 ± 0.13
92 | C12R | -0.954 ± 0.094
93 | C12S | -0.956 ± 0.11
94 | C12T | -0.813 ± 0.12
95 | C12V | -0.78 ± 0.14
96 | C12W | -0.836 ± 0.11

Row | Variant | abundance fitness
97 | C12Y | -0.871 ± 0.13
98 | Q13A | -0.237 ± 0.1
99 | Q13C | -0.048 ± 0.12
100 | Q13D | -0.346 ± 0.12
101 | Q13E | -0.09 ± 0.12
102 | Q13F | 0.012 ± 0.12
103 | Q13G | -0.194 ± 0.1
104 | Q13H | 0.059 ± 0.11
105 | Q13K | -0.051 ± 0.1
106 | Q13M | 0.084 ± 0.09
107 | Q13N | -0.084 ± 0.13
108 | Q13P | -0.783 ± 0.13
109 | Q13R | 0.01 ± 0.081
110 | Q13S | -0.019 ± 0.084
111 | Q13V | -0.057 ± 0.084
112 | Q13W | -0.363 ± 0.12
113 | Q13Y | -0.015 ± 0.11
114 | Q14A | -0.043 ± 0.12
115 | Q14C | -0.036 ± 0.13
116 | Q14D | -0.166 ± 0.18
117 | Q14E | -0.029 ± 0.43
118 | Q14F | -0.26 ± 0.12
119 | Q14G | -0.151 ± 0.15
120 | Q14H | -0.159 ± 0.15

Row | Variant | abundance fitness
121 | Q14I | -0.17 ± 0.17
122 | Q14L | -0.127 ± 0.1
123 | Q14M | -0.022 ± 0.14
124 | Q14N | 0.016 ± 0.15
125 | Q14P | -1 ± 0.22
126 | Q14R | 0.017 ± 0.088
127 | Q14S | -0.192 ± 0.096
128 | Q14T | -0.051 ± 0.1
129 | Q14V | -0.129 ± 0.14
130 | Q14Y | -0.501 ± 0.2
131 | G15A | 0.329 ± 0.18
132 | G15C | -0.823 ± 0.34
133 | G15D | -0.21 ± 0.27
134 | G15E | -0.202 ± 0.19
135 | G15K | 0.112 ± 0.27
136 | G15L | -0.366 ± 0.21
137 | G15M | 0.084 ± 0.21
138 | G15N | -0.065 ± 0.27
139 | G15P | -0.488 ± 0.31
140 | G15Q | -0.434 ± 0.27
141 | G15T | 0.088 ± 0.18
142 | G15V | -0.609 ± 0.21
143 | G15W | -0.121 ± 0.2
144 | G15Y | -0.03 ± 0.26

Row | Variant | abundance fitness
145 | G16C | -0.256 ± 0.14
146 | G16D | -0.053 ± 0.18
147 | G16E | 0.07 ± 0.15
148 | G16F | -0.156 ± 0.28
149 | G16H | -0.057 ± 0.17
150 | G16I | 0.079 ± 0.17
151 | G16K | 0.346 ± 0.13
152 | G16L | -0.097 ± 0.11
153 | G16M | -0.237 ± 0.15
154 | G16N | 0.157 ± 0.16
155 | G16P | -0.423 ± 0.13
156 | G16Q | -0.251 ± 0.19
157 | G16R | 0.197 ± 0.083
158 | G16S | 0.118 ± 0.1
159 | G16T | 0.234 ± 0.13
160 | G16V | -0.113 ± 0.11
161 | G16W | 0.025 ± 0.12
162 | G16Y | 0.033 ± 0.15
163 | E17A | -0.081 ± 0.1
164 | E17C | -0.037 ± 0.11
165 | E17D | -0.047 ± 0.13
166 | E17F | -0.162 ± 0.14
167 | E17G | -0.234 ± 0.094
